# Assay results reported in patent US20090214574A1.
# What was measured:
# [1] = biological target: human CD16A-Fc^48R/158F fusion protein (human) (UniProt P08637); assay: surface plasmon resonance
# [2] = biological target: human CD16A-Fc^48R/158F fusion protein (human) (UniProt P08637); assay: SPR, BIAcore 2000, antigen immobilized
# [3] = biological target: human CD16A-Fc^48R/158F fusion protein (human) (UniProt P08637); assay: SPR, BIAcore 2000, antigen immobilized, koff/kon
# [4] = biological target: human CD16A-Fc^48R/158F fusion protein (human) (UniProt P08637); assay: affinity measurement, method not named for the TandAb
# [5] = biological target: human CD16A-Fc^48R/158V fusion protein (human) (UniProt P08637); assay: as above
# Chain of human CD16A-Fc^48R/158V fusion protein (human) (P08637 17-208 L66R/F176V limits assumed): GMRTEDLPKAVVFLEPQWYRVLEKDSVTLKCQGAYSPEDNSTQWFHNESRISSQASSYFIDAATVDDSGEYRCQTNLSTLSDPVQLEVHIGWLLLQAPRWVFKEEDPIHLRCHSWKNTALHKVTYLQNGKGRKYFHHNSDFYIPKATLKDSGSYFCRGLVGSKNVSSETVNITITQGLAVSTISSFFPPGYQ
# Chain of human CD16A-Fc^48R/158F fusion protein (human) (P08637 17-208): as the sequence (P08637 17-208 L66R/F176V limits assumed) above, with R50L, V160F counted along it
Kd [1] [nM],koff [2] [s⁻¹],kon [2] [M⁻¹ s⁻¹],Kd [3] [nM],fold improvement in affinity over the 4-LS21 scFv [4] [fold],fold improvement in affinity over the 4-LS21 scFv [5] [fold],Binder
50,0.00323,71300,45.3,–,–,affinity matured anti-CD16A scFv 4-LS21 (scFv) scFv: EVQLVQSGAEVKKPGESLKVSCKASGYTFTSYYMHWVRQAPGQGLEWMGIINPSGGSTSYAQKFQGRVTMTRDTSTSTVYMELSSLRSEDTAVYYCARGSAYYYDFADYWGQGTLVTVSSGSASAPTLKLEEGEFSEARVQPVLTQPSSVSVAPGQTATISCGGHNIGSKNVHWYQQRPGQSPVLVIYQDNKRPSGIPERFSGSNSGNTATLTISGTQAMDEADYYCQVWDNYSVLFGGGTKLTVLGQPKAAPSVTLFPPSAAAGSEQKLISEEDLNSHHHHHH
–,–,–,–,> 10,> 10,"CD30×CD16^LS21 TandAb/(G2S)3 (bispecific antibody, part only; not given: anti-CD30 VH and VL, His tag, not shown: small tags and cut ends) chain, part: EEVQLVQSGAEVKKPGESLKVSCKASGYTFTSYYMHWVRQAPGQGLEWMGIINPSGGSTSYAQKFQGRVTMTRDTSTSTVYMELSSLRSEDTAVYYCARGSAYYYDFADYWGQGTLVTVSSGGSGGSGGSGGSGGSGGSGGSGGSGGSQPVLTQPSSVSVAPGQTATISCGGHNIGSKNVHWYQQRPGQSPVLVIYQDNKRPSGIPERFSGSNSGNTATLTISGTQAMDEADYYCQVWDNYSVLFGGGTKLTVL"
